Each block holds one molecule with its values, some of them ahead of it.
Target: soluble extracellular domain of poliovirus receptor (sPVR)
Assay: BLI

Kd: 0.033 µM
Molecule: mouse TIGIT protein (from UniProt P86176 29-148) (receptor)

Kd: 6.13 µM
B1: mouse CD226 protein (receptor)
chain: EETLWDTTVRLSETMTLECVYPLTHNLTQVEWTKNTGTKTVSIAVYNPNHNMHIESNYLHRVHFLNSTVGFRNMSLSFYNASEADIGIYSCLFHAFPNGPWEKKIKVVWSDSFEIAAPSDSYLSAEPGQDVTLTCQLPRTWPVQQVIWEKVQPHQVDILASCNLSQETRYTSKYLRQTRSNCSQGSMKSILIIPNAMAADSGLYRCRSEAITGKNKSFVIRLIITDGGTNKHFILP
